T1: murine interleukin 17E receptor present on the pre-B cell line 70Z/3 (murine, UniProt Q9JIP3 18-499)
T1 construct: whole, on cells; This is the endogenous receptor on 70Z/3 cells; also called murine IL-17E receptor; IL-17E receptor
T1 sequence (looked up): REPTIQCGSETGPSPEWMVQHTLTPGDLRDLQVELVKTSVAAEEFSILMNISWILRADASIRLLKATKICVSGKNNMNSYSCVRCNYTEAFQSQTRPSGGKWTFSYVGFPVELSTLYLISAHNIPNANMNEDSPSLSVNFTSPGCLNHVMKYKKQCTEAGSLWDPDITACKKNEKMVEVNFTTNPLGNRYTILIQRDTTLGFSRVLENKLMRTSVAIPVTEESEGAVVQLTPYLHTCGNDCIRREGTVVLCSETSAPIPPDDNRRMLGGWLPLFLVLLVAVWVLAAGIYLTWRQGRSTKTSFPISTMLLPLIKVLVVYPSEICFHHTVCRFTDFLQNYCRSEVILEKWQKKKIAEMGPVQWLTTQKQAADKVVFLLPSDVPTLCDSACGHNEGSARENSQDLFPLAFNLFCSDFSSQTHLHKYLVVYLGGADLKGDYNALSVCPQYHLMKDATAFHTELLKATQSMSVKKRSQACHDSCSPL


Legend:
[1] = molecular target: T1, murine interleukin 17E receptor present …; test: FACS on 70Z/3 cells incubated with IL-17E (1 ug/10^6 cells), detected with biotin-conjugated goat anti-human IL17E and PE-Cy5.5 streptavidin
Procedure: (§1) The ability of human and murine interleukin 17E to bind to the IL-17E receptor was examined using the murine pre-B cell line 70Z/3 (Paige, C. J., et al. (1981) Nature 292:631-3).
(§2) Fluorescence-Activated Cell Sorter (FACS) Analysis: 1×10⁶ 70Z/3 cells/sample were incubated with either murine or human IL-17E (1 μg/10⁶ cells) for 30 minutes at 4° C. After washing twice, cells that had been incubated with murine IL-17E were incubated with biotin-conjugated goat anti-mouse IL17E and phycoerythrin (PE)-Cy5.5-conjugated streptavidin. Cells that had been incubated with human IL-17E were incubated with biotin-conjugated goat anti-human IL17E-biotin and phycoerythrin (PE)-Cy5.5-conjugated streptavidin. As negative controls, cells were stained with antibodies as described without preincubation with human or murine IL-17E. Samples were then fixed with 0.5% paraformaldehyde prior to FACS analysis.

[2] = molecular target: T1, murine interleukin 17E receptor present …; test: FACS on 70Z/3 cells incubated with IL-17E (1 ug/10^6 cells), detected with biotin-conjugated goat anti-mouse IL17E and PE-Cy5.5 streptavidin
Procedure: as §1, §2

binding result [1] | binding result [2] | Binder
binds | – | recombinant human interleukin 17E (ligand, also called human IL-17E; hIL-17E) YSHWPSCCPSKGQDTSEELLRWSTVPVPPLEPARPNRHPESCRASEDGPLNSRAISPWRYELDRDLNRLPQDLYHARCLCPHCVSLQTGSHMDPRGNSELLYHNQTVFYRRPCHGEKGTHKGYCLERRLYRVSLACVCVRPRVMG
– | binds | murine interleukin 17E (ligand, also called murine IL-17E; mIL-17E) VSLRIQEGCSHLPSCCPSKEQEPPEEWLKWSSASVSPPEPLSHTHHAESCRASKDGPLNSRAISPWSYELDRDLNRVPQDLYHARCLCPHCVSLQTGSHMDPLGNSVPLYHNQTVFYRRPCHGEEGTHRRYCLERRLYRVSLACVCVRPRVMA
